Measurements taken from US20120164670.

Key:
[1] = molecular target: T1, H3K9ac substrate (TARK(ac)STG)
T1 chain: TARKSTG

[2] = molecular target: DBC1, Q8N163
[3] = molecular target: Fleur de Lys peptide (BIOMOL)

Sequence of DBC1, Q8N163 (Q8N163 whole entry, looked up): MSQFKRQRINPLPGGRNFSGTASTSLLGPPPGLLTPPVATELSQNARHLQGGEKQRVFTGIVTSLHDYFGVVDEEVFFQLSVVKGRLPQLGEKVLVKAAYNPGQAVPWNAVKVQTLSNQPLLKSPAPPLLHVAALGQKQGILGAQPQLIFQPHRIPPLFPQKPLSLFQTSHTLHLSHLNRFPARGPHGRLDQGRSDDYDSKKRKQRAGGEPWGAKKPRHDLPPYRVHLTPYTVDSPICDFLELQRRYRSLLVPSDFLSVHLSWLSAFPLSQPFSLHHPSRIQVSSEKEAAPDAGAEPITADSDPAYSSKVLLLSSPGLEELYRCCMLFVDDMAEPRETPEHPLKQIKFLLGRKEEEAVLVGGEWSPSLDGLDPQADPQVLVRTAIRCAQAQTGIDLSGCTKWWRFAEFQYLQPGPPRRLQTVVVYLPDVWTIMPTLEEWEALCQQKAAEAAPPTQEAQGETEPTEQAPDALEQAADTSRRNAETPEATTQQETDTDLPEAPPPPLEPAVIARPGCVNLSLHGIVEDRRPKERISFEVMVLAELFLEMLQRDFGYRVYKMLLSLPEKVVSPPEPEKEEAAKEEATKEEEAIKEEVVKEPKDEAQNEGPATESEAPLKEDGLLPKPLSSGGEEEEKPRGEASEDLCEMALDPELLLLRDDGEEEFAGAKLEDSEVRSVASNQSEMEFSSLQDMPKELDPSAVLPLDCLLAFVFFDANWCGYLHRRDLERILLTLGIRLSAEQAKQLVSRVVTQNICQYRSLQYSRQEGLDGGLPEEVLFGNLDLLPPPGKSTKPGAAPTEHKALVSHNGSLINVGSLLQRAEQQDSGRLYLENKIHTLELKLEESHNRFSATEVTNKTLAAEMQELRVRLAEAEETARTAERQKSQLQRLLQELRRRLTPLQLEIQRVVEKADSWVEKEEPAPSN

B1: full-length human SIRT1 enzyme (protein)
chain: ADEAALALQPGGSPSAAGADREAASSPAGEPLRKRPRRDGPGLERSPGEPGGAAPEREVPAAARGCPGAAAAALWREAEAEAAAAGGEQEAQATAAAGEGDNGPGLQGPSREPPLADNLYDEDDDDEGEEEEEAAAAAIGYRDNLLFGDEIITNGFHSCESDEEDRASHASSSDWTPRPRIGPYTFVQQHLMIGTDPRTILKDLLPETIPPPELDDMTLWQIVINILSEPPKRKKRKDINTIEDAVKLLQECKKIIVLTGAGVSVSCGIPDFRSRDGIYARLAVDFPDLPDPQAMFDIEYFRKDPRPFFKFAKEIYPGQFQPSLCHKFIALSDKEGKLLRNYTQNIDTLEQVAGIQRIIQCHGSFATASCLICKYKVDCEAVRGDIFNQVVPRCPRCPADEPLAIMKPEIVFFGENLPEQFHRAMKYDKDEVDLLIVIGSSLKVRPVALIPSSIPHEVPQILINREPLPHLHFDVELLGDCDVIINELCHRLGGEYAKLCCNPVKLSEITEKPPRTQKELAYLSELPPTPLHVSEDSSSPERTSPPDSSVIVTLLDQAAKSNDDLDVSESKGCMEEKPQEVQTSRNVESIAEQMENPDLKNVGSSTGEKNERTSVAGTVRKCWPNRVAKEQISRRLDGNQYLFLPPNRYIFHGAEVYSDSEDDVLSSSSCGSNSDSGTCQSPSLEEPMEDESEIEEFYNGLEDEPDVPERAGGAGFGTDGDDQEAINEAISVKQEVTDMNYPSNKS
- Km (stated in the kit protocol for the SIRT1 deacetylation reaction) [1]: final concentration=50 uM (Km)
- SIRT1 activity (PNC1-OPT assay, dose titration of DBC1, H3K9-L peptide substrate) [2]: DBC1 concentration inversely correlates with SIRT1 activity
- Km (PNC1-OPT nicotinamide assay, SIRT1 deacetylation) [3]: ˜130.2 uM
